Measured values published in patent US7285618 (JAPAN TOBACCO, dated 2007).

Molecular target: G protein (Gi) purified from rabbit liver (rabbit)
Assay: cell-based or functional assay

GTPase activity of Gi: ~6 fold
B1: cytochrome C oxidase subunit peptide-1 (COSP-1) (peptide)
peptide: LSFLIPAGWVLSHLDHYKRSSAA
